# Patent US12099068B2, “Biomarkers for graft-versus-host disease” (Incyte Corporation, priority 2018, dated 2024)
# B1: FCRL6 (protein, UniProt Q6DN72 20-434, looked up)
# Fc receptor-like protein 6: LYLQAWPNPVFEGDALTLRCQGWKNTPLSQVKFYRDGKFLHFSKENQTLSMGAATVQSRGQYSCSGQVMYIPQTFTQTSETAMVQVQELFPPPVLSAIPSPEPREGSLVTLRCQTKLHPLRSALRLLFSFHKDGHTLQDRGPHPELCIPGAKEGDSGLYWCEVAPEGGQVQKQSPQLEVRVQAPVSRPVLTLHHGPADPAVGDMVQLLCEAQRGSPPILYSFYLDEKIVGNHSAPCGGTTSLLFPVKSEQDAGNYSCEAENSVSRERSEPKKLSLKGSQVLFTPASNWLVPWLPASLLGLMVIAAALLVYVRSWRKAGPLPSQIPPTAPGGEQCPLYANVHHQKGKDEGVVYSVVHRTSKRSEARSAEFTVGRKDSSIICAEVRCLQPSEVSSTEVNMRSRTLQEPLSDCEEVLC
# B2: EGF (protein, UniProt P01133 23-1207, looked up)
# Pro-epidermal growth factor: PQHWSCPEGTLAGNGNSTCVGPAPFLIFSHGNSIFRIDTEGTNYEQLVVDAGVSVIMDFHYNEKRIYWVDLERQLLQRVFLNGSRQERVCNIEKNVSGMAINWINEEVIWSNQQEGIITVTDMKGNNSHILLSALKYPANVAVDPVERFIFWSSEVAGSLYRADLDGVGVKALLETSEKITAVSLDVLDKRLFWIQYNREGSNSLICSCDYDGGSVHISKHPTQHNLFAMSLFGDRIFYSTWKMKTIWIANKHTGKDMVRINLHSSFVPLGELKVVHPLAQPKAEDDTWEPEQKLCKLRKGNCSSTVCGQDLQSHLCMCAEGYALSRDRKYCEDVNECAFWNHGCTLGCKNTPGSYYCTCPVGFVLLPDGKRCHQLVSCPRNVSECSHDCVLTSEGPLCFCPEGSVLERDGKTCSGCSSPDNGGCSQLCVPLSPVSWECDCFPGYDLQLDEKSCAASGPQPFLLFANSQDIRHMHFDGTDYGTLLSQQMGMVYALDHDPVENKIYFAHTALKWIERANMDGSQRERLIEEGVDVPEGLAVDWIGRRFYWTDRGKSLIGRSDLNGKRSKIITKENISQPRGIAVHPMAKRLFWTDTGINPRIESSSLQGLGRLVIASSDLIWPSGITIDFLTDKLYWCDAKQSVIEMANLDGSKRRRLTQNDVGHPFAVAVFEDYVWFSDWAMPSVMRVNKRTGKDRVRLQGSMLKPSSLVVVHPLAKPGADPCLYQNGGCEHICKKRLGTAWCSCREGFMKASDGKTCLALDGHQLLAGGEVDLKNQVTPLDILSKTRVSEDNITESQHMLVAEIMVSDQDDCAPVGCSMYARCISEGEDATCQCLKGFAGDGKLCSDIDECEMGVPVCPPASSKCINTEGGYVCRCSEGYQGDGIHCLDIDECQLGEHSCGENASCTNTEGGYTCMCAGRLSEPGLICPDSTPPPHLREDDHHYSVRNSDSECPLSHDGYCLHDGVCMYIEALDKYACNCVVGYIGERCQYRDLKWWELRHAGHGQQQKVIVVAVCVVVLVMLLLLSLWGAHYYRTQKLLSKNPKNPYEESSRDVRSRRPADTEDGMSSCPQPWFVVIKEHQDLKNGGQPVAGEDGQAADGSMQPTSWRQEPQLCGMGTEQGCWIPVSSDKGSCPQVMERSFHMPSYGTQTLEGGVEKPHSLLSANPLWQQRALDPPHQMELTQ
# modifications: Pro-epidermal growth factor
# B3: FASLG (protein, UniProt P48023 130-281, looked up)
# Tumor necrosis factor ligand …: QIGHPSPPPEKKELRKVAHLTGKSNSRSMPLEWEDTYGIVLLSGVKYKKGGLVINETGLYFVYSKVYFRGQSCNNLPLSHKVYMRNSKYPQDLVMMEGKMMSYCTTGQMWARSSYLGAVFNLTSADHLYVNVSELSLVNFEESQTFFGLYKL
# B4: DNER (protein, UniProt Q8NFT8 35-737, looked up)
# Delta and Notch-like …: NPVPAAPLSAPGPCAAQPCRNGGVCTSRPEPDPQHPAPAGEPGYSCTCPAGISGANCQLVADPCASNPCHHGNCSSSSSSSSDGYLCICNEGYEGPNCEQALPSLPATGWTESMAPRQLQPVPATQEPDKILPRSQATVTLPTWQPKTGQKVVEMKWDQVEVIPDIACGNASSNSSAGGRLVSFEVPQNTSVKIRQDATASLILLWKVTATGFQQCSLIDGRSVTPLQASGGLVLLEEMLALGNNHFIGFVNDSVTKSIVALRLTLVVKVSTCVPGESHANDLECSGKGKCTTKPSEATFSCTCEEQYVGTFCEEYDACQRKPCQNNASCIDANEKQDGSNFTCVCLPGYTGELCQSKIDYCILDPCRNGATCISSLSGFTCQCPEGYFGSACEEKVDPCASSPCQNNGTCYVDGVHFTCNCSPGFTGPTCAQLIDFCALSPCAHGTCRSVGTSYKCLCDPGYHGLYCEEEYNECLSAPCLNAATCRDLVNGYECVCLAEYKGTHCELYKDPCANVSCLNGATCDSDGLNGTCICAPGFTGEECDIDINECDSNPCHHGGSCLDQPNGYNCHCPHGWVGANCEIHLQWKSGHMAESLTNMPRHSLYIIIGALCVAFILMLIILIVGICRISRIEYQGSSRPAYEEFYNCRSIDSEFSNAIASIRHARFGKKSRPAMYDVSPIAYEDYSPDDKPLVTLIKTKDL
# B5: MATN3 (protein, UniProt O15232 29-486, looked up)
# Matrilin-3: DPVARPGFRRLETRGPGGSPGRRPSPAAPDGAPASGTSEPGRARGAGVCKSRPLDLVFIIDSSRSVRPLEFTKVKTFVSRIIDTLDIGPADTRVAVVNYASTVKIEFQLQAYTDKQSLKQAVGRITPLSTGTMSGLAIQTAMDEAFTVEAGAREPSSNIPKVAIIVTDGRPQDQVNEVAARAQASGIELYAVGVDRADMASLKMMASEPLEEHVFYVETYGVIEKLSSRFQETFCALDPCVLGTHQCQHVCISDGEGKHHCECSQGYTLNADKKTCSALDRCALNTHGCEHICVNDRSGSYHCECYEGYTLNEDRKTCSAQDKCALGTHGCQHICVNDRTGSHHCECYEGYTLNADKKTCSVRDKCALGSHGCQHICVSDGAASYHCDCYPGYTLNEDKKTCSATEEARRLVSTEDACGCEATLAFQDKVSSYLQRLNTKLDDILEKLKINEYGQIHR
# B6: GZMH (protein, UniProt P20718 21-246, looked up)
# Granzyme H: IIGGHEAKPHSRPYMAFVQFLQEKSRKRCGGILVRKDFVLTAAHCQGSSINVTLGAHNIKEQERTQQFIPVKRPIPHPAYNPKNFSNDIMLLQLERKAKWTTAVRPLRLPSSKAQVKPGQLCSVAGWGYVSMSTLATTLQEVLLTVQKDCQCERLFHGNYSRATEICVGDPKKTQTGFKGDSGGPLVCKDVAQGILSYGNKKGTPPGVYIKVSHFLPWIKRTMKRL
# B7: CLEC4G (protein, UniProt Q6UXB4 1-293, looked up)
# C-type lectin domain family 4 …: MDTTRYSKWGGSSEEVPGGPWGRWVHWSRRPLFLALAVLVTTVLWAVILSILLSKASTERAALLDGHDLLRTNASKQTAALGALKEEVGDCHSCCSGTQAQLQTTRAELGEAQAKLMEQESALRELRERVTQGLAEAGRGREDVRTELFRALEAVRLQNNSCEPCPTSWLSFEGSCYFFSVPKTTWAAAQDHCADASAHLVIVGGLDEQGFLTRNTRGRGYWLGLRAVRHLGKVQGYQWVDGVSLSFSHWNQGEPNDAWGRENCVMMLHTGLWNDAPCDSEKDGWICEKRHNC
# B8: PRDX3 (protein, UniProt P30048 62-256, looked up)
# Thioredoxin-dependent …: APAVTQHAPYFKGTAVVNGEFKDLSLDDFKGKYLVLFFYPLDFTFVCPTEIVAFSDKANEFHDVNCEVVAVSVDSHFSHLAWINTPRKNGGLGHMNIALLSDLTKQISRDYGVLLEGSGLALRGLFIIDPNGVIKHLSVNDLPVGRSVEETLRLVKAFQYVETHGEVCPANWTPDSPTIKPSPAASKEYFQKVNQ
# B9: CEACAM8 (protein, UniProt P31997 35-320, looked up)
# Cell adhesion molecule CEACAM8: QLTIEAVPSNAAEGKEVLLLVHNLPQDPRGYNWYKGETVDANRRIIGYVISNQQITPGPAYSNRETIYPNASLLMRNVTRNDTGSYTLQVIKLNLMSEEVTGQFSVHPETPKPSISSNNSNPVEDKDAVAFTCEPETQNTTYLWWVNGQSLPVSPRLQLSNGNRTLTLLSVTRNDVGPYECEIQNPASANFSDPVTLNVLYGPDAPTISPSDTYYHAGVNLNLSCHAASNPPSQYSWSVNGTFQQYTQKLFIPNITTKNSGSYACHTTNSATGRNRTTVRMITVSD
# B10: SEMA7A (protein, UniProt O75326 45-648, looked up)
# Semaphorin-7A: QGHLRSGPRIFAVWKGHVGQDRVDFGQTEPHTVLFHEPGSSSVWVGGRGKVYLFDFPEGKNASVRTVNIGSTKGSCLDKRDCENYITLLERRSEGLLACGTNARHPSCWNLVNGTVVPLGEMRGYAPFSPDENSLVLFEGDEVYSTIRKQEYNGKIPRFRRIRGESELYTSDTVMQNPQFIKATIVHQDQAYDDKIYYFFREDNPDKNPEAPLNVSRVAQLCRGDQGGESSLSVSKWNTFLKAMLVCSDAATNKNFNRLQDVFLLPDPSGQWRDTRVYGVFSNPWNYSAVCVYSLGDIDKVFRTSSLKGYHSSLPNPRPGKCLPDQQPIPTETFQVADRHPEVAQRVEPMGPLKTPLFHSKYHYQKVAVHRMQASHGETFHVLYLTTDRGTIHKVVEPGEQEHSFAFNIMEIQPFRRAAAIQTMSLDAERRKLYVSSQWEVSQVPLDLCEVYGGGCHGCLMSRDPYCGWDQGRCISIYSSERSVLQSINPAEPHKECPNPKPDKAPLQKVSLAPNSRYYLSCPMESRHATYSWRHKENVEQSCEPGHQSPNCILFIENLTAQQYGHYFCEAQEGSYFREAQHWQLLPEDGIMAEHLLGHACALA
# Test system: plasma proteins
# Assay: Plasma proteins modulated between baseline and day 28 in responders (CR, VGPR, PR; n = 19), Example 6 (Table 13)
# Type: in vivo, human
# Details: plasma protein (OLINK NPX); responders (CR, VGPR, PR; n = 19); itacitinib 200 mg or 300 mg QD with corticosteroids; day 28 vs baseline
# Method in brief: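 Plasma at baseline/screening and day 28 profiled for >1000 proteins by OLINK proximity extension assay, reported as NPX (log2). Steroid-naive and steroid-refractory patients pooled. Paired and unpaired t tests, ANOVA and Pearson correlation applied; significance at P<0.05.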
Molecule,"Fold Change, Decreased Expression from Baseline to Day 28","Fold Change, Increased Expression from Baseline to Day 28"
B1,−1.3556,
B2,−1.7729,
B3,−1.3614,
B4,,1.2957
B5,−1.3384,
B6,−1.494,
B7,−1.1865,
B8,−1.199,
B9,−1.6177,
B10,−1.1335,
